# Legend:
# [1] = Example 9: screening of rhamnosidase variants for derhamnosylation of saponins in crude bark extract; format: biochemical, Quillaja saponaria; settings: R5 round: 35 deg C, 18 h, lysate 0.0625% v/v, CBE 75% v/v, 100 mM Sodium acetate pH 5.8
# Method: Libraries of genetic variants encoding mutations in the wild type Kribbella flavida rhamnosidase (SEQ ID No. 1017) were prepared using molecular biology techniques, enzymes were prepared linked to a C-terminally located His-tag. Single monoclonal colonies were grown in 400 ul of expression medium and protein expressed. Cell pellets were lysed in 200 ul of the relevant buffer (Table 17).
# Lysate was diluted appropriately in the relevant buffer to allow a lysate loading of the indicated % loading (1% loading corresponds to use of 2 ul original lysate in a 200 ul reaction).
# Crude bark extract (CBE) obtained by aqueous extraction of Quillaja saponaria and containing at least 2.80 mg/ml QS-21 (by HPLC-UV) was adjusted to pH 6 by dropwise addition of 2M NaOH with stirring. The relevant concentration of the relevant glucosidase was added. The appropriate relative volume of pH 6 CBE (160 ul (for 80%) or 150 ul (for 75%)) was added to each well of the reaction plate. The reaction plate was sealed and incubated at the relevant temperature and time.
# The reaction plate was quenched by adding 200 uL of MeCN (2% AcOH, 1 mg/mL hexanophenone) to each well of the plates. The quenched reaction plate was re-sealed and incubated at 20 deg C. with shaking for 10 min. The reaction plate was then centrifuged (10 min, 4 degC).
# 200 uL was transferred from each well of the quenched plate to the corresponding wells of a fresh 96 well plate and sealed. The plate was analysed by UV HPLC with the method described in Example 4.
# Three key peaks of interest are apparent using this chromatography: Left Peak (retention time approximately 2.30-2.35 min) comprising mainly QS-17 family components; Middle Peak (retention time approximately 2.37-2.42 min) comprising mainly QS-18 family components and desglucosyl-QS-17 family components; and Right Peak (retention time approximately 2.44-2.50 min) comprising mainly QS-21 family components. Peak identity was supported by MS/MS.
# Enzyme activity is calculated as the % conversion of the Left Peak present in the crude bark extract: […]
# [2] = Example 10: derhamnosylation of saponins in crude bark extract (50%) using WT and engineered rhamnosidases R1 to R5; format: biochemical, Quillaja saponaria; settings: 50% CBE, 35 degC; for % Right Peak: starting CBE 26; for % Left Peak: starting CBE 30; for % Middle Peak: starting CBE 44
# Method: Lyophilised powders from clarified cell lysate expressing glucosidases (from Example 8 WT glucosidase and engineered glucosidase polypeptides G1 to G5) and rhamnosidases (from Example 9 WT rhamnosidase and engineered rhamnosidase polypeptides R1 to R5) were dissolved in 200 mM sodium acetate aqueous solution at pH 5.8 to prepare the enzyme solutions at 4 fold the final reaction concentration as shown in Tables 19 and 20.
# Each rhamnosidase solution was combined with an equal volume of 200 mM sodium acetate aqueous solution at pH 5.8 and separately with an equal volume of 200 mM sodium acetate aqueous solution at pH 5.8 containing 2 mg/ml glucosidase G5. This is a sufficient loading of glucosidase to effect complete hydrolysis of the relevant glucose moiety within 4 hours.
# CBE was adjusted to pH of 6.0 to 6.2 with 2M sodium hydroxide and an equal volume added to the enzyme solution to prepare the reaction mix (i.e. 50% CBE concentration in reaction mix) and the concentration of glucosidase and/or rhamnosidase is shown in Tables 19 and 20. The reaction mix was heated to 35 degC for the time indicated in Tables 19 and 20, after which the reaction was quenched by addition of an equal volume of MeCN containing 2% acetic acid and shaken at room temperature for 10 mins prior to centrifugation (10 min, 4 degC) to remove particulates. Samples were analysed by UV HPLC using method of Experiment 4-4.
# The change in composition of the Left, Middle and Right peaks is shown in Tables 19 and 20. The composition changes by the action of the enzymes depending on the presence or absence of the partner enzyme. The extent of reaction is proportional to the enzyme concentration and the reaction time under these conditions. The tables show data for enzyme concentrations and the reaction times providing for equivalent extents of reaction. The improvement resulting from the mutations introduced for each variant is equal to the fold change in enzyme concentration×time (i.e. fold improvement=(enzyme concentration×time) for preceding variant÷(enzyme concentration×time) for later variant). A cumulative fold improvement over the original enzyme variant is calculated by the product of the individual fold improvements.
# [3] = rhamnosidase 0.16 mg/ml, no glucosidase, 7 h
# [4] = rhamnosidase 0.31 mg/ml + glucosidase G5 0.5 mg/ml, 4 h
molecule,measurement,setting,value
"Variant R5: engineered rhamnosidase polypeptide, variant of Kribbella flavida rhamnosidase SEQ ID No. 1017 (protein, Seq ID No. 1017 with mutations A143P, L214M, G215S, G218D, K219G, G357C, G508S, G634A, A690C, Q921H) MSFPAAPARLRFEHRTDPGPVLGIGTATPRLSWQVPTAPDDYRQAGYEVEIARGDAAPEQYTVDSADQVLVPWPGTPLAARESATVRVRVRGDGDWSQWSDPATVEAGLLSADDWTARFVSPRENAGHEAPAPLIGGVIDLPPDIAQARLYATAHGIYEPTLNGTRVGDEQLAPGWTAYEQRLRYQTYDVTDLVAPGENRLELLVGNGWYRGRMSFHDGHSLYGDRLAVLAQLEVTTATGEVKVLASDGTWTTRETNVLADDLYDGQHVDLRRTLGEPGPVDVLDADLSLLVAPDGPPVRVTDVLPAKAVTTSPAGKTLVDFGQNVVGRLRLRVRGGAAGDEIVLRHAEVLEDGELCVRPLRTAKATDSFVLAGPDEVTLEPTLTFHGFRYAEITGVPDLRAEDVEAVVVGSDLRRTGWFESSHPLLDRFHENVVWGMRGNFLDVPTDCPQRDERLGWTGDIQVFSPTASFLFDTAGFLTNWLADLIAEQHKDGSVPFVVPDVLRQPSPATAAWGDAATIVPWVLYERTGDAGLLARQLPSMRAWVDRMAGLAGDDLLWVGGFQFGDWLDPTAPPDDPFRAKADPDVLATAHLARSAEVVALAAEVVGAGELAREYAELAARVRQAFAAEYTTASGRVLSDAATNYALALQWALLPTEAQRKRAGERLADLVRTAGFRISTGFVGTPLMCDALADSGHPDLAYRLLLETGCPSWLYAVTMDATTVWERWDSMLPDGSINPGQMTSFNHYALGAVADWMHRRVAGLAPGDPGYRRIVVDPLFTAHLTKASARHLTPYGEAAVAWSRSGGRVRLEVTVPVGARARVAVPGESAPVEVGHGTHEWTADDVYGETPPLPADATIRQLIDHEPSWTTLAAAATRTGIVADDAELAGRLERYLDHPATELVDAVSPRGFSPSAEALHAELDSVLGR",% conversion (Right peak/Left Peak) (−neg control),[1],2.62%
same,Cumulative FIOP from WT,[1]; estimate,28.7
same,Right Peak %,[1]; negative control 26.23,26.93%
same,Left Peak %,[1]; negative control 28.76,26.59%
same,Middle Peak %,[1]; negative control 45.00,46.48%
same,% conversion (Right peak/Left Peak),[1]; negative control 47.70,50.32%
same,FIOP (% area increase variant/pos control),[1]; positive control R4,1.3
same,time to complete hydrolysis of the relevant rhamnose moiety,[2]; 2 mg/ml rhamnosidase R5 solution (before mixing with glucosidase solution and CBE),≤ 4 h
same,cumulative fold improvement over WT rhamnosidase,[2]; from enzyme concentration x time for equivalent extent of reaction,approximately 30 fold
same,% change in Left Peak,[2]; [3],−45%
same,% change in Middle Peak,[2]; [3],27%
same,% change in Right Peak,[2]; [3],106%
same,Cumulative Fold improvement in primary enzyme loading × time,[2]; [3],31
same,Fold improvement in primary enzyme loading × time,[2]; [3],1.9
same,% Right Peak,[2]; [3],28%
same,% Left Peak,[2]; [3],17%
same,% Middle Peak,[2]; [3],56%
same,% change in Left Peak,[2]; [4],−34%
same,% change in Middle Peak,[2]; [4],−93%
same,% change in Right Peak,[2]; [4],296%
same,Cumulative Fold improvement in primary enzyme loading × time,[2]; [4],27
same,Fold improvement in primary enzyme loading × time,[2]; [4],1.7
same,% Right Peak,[2]; [4],77%
same,% Left Peak,[2]; [4],20%
same,% Middle Peak,[2]; [4],3%

# Reference: US20240026407A1, “MODIFICATION OF SAPONINS” (GLAXOSMITHKLINE BIOLOGICALS SA, priority 2020, published 2024)
